Where a chain is given by its changes, count along the chain named. Names and notes keep the numbering of the source.
T1: rHuman Erythropoietin R/Fc Chimera, CF (R&D Systems Cat#963-ER) (human, UniProt P19235 25-250)
T1 construct: Bought recombinant protein; also called EPO R; EPO R/Fc; Fc part of the bought chimera not given
T1 sequence (looked up): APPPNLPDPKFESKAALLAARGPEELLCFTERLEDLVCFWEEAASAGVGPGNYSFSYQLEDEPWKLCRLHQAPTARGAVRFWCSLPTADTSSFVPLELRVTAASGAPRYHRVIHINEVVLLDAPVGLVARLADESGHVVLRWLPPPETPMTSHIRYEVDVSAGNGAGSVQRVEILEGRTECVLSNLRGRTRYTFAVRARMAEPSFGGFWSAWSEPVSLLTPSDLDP

B1: Fab VH3-23_IGHD2-21*01>3_IGHJ6*01 H100E/S108P/Y113G (EPG) Y109D & V2-13_IGLJ2*01 (Fab, V domains shown)
VH: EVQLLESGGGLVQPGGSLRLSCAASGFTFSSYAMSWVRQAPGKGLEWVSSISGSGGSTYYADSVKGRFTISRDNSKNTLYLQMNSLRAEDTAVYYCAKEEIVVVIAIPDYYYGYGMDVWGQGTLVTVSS
VL: SSELTQDPAVSVALGQTVRITCQGDSLRSYYASWYQQKPGQAPVLVIYGKNNRPSGIPDRFSGSSSGNTASLTITGAQAEDEADYYCNSRDSSGNHLVVFGGGTKLTVL
notes: Fab; NNK mutant of the EPG heavy chain; CH1 (tags) and lambda CL come from the vectors
B2: Fab VH3-23_IGHD2-21*01>3_IGHJ6*01 H100E/S108P/Y113G (EPG) Y109T & V2-13_IGLJ2*01 (Fab, V domains shown)
VH: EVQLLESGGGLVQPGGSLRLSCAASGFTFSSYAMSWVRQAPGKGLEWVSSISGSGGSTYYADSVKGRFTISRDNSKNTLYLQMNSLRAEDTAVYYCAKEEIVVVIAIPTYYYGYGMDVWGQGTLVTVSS
VL: B1 VL
notes: as for B1
B3: Fab VH3-23_IGHD2-21*01>3_IGHJ6*01 H100E/S108P/Y113G (EPG) Y109Q & V2-13_IGLJ2*01 (Fab, V domains shown)
VH: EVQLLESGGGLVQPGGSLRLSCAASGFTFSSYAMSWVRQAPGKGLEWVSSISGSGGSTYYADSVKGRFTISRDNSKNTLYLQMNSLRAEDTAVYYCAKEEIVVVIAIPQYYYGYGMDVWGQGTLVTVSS
VL: B1 VL
notes: as for B1
B4: Fab VH3-23_IGHD2-21*01>3_IGHJ6*01 H100E/S108P/Y113G (EPG) Y109H & V2-13_IGLJ2*01 (Fab, V domains shown)
VH: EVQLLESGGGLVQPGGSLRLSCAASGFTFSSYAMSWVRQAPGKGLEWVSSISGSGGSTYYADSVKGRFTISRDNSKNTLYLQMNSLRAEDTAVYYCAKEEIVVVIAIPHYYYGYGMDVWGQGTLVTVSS
VL: B1 VL
notes: as for B1
B5: Fab VH3-23_IGHD2-21*01>3_IGHJ6*01 H100E/S108P/Y113G (EPG) Y109L & V2-13_IGLJ2*01 (Fab, V domains shown)
VH: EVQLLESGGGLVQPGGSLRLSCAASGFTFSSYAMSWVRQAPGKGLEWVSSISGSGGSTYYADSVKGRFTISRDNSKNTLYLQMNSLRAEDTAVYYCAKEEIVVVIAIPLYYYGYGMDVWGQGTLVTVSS
VL: B1 VL
notes: as for B1
B6: Fab H:APFF LTH & L6_IGKJ1*01 S28N/S30D/S31H (NDH) (Fab, V domains shown)
VH: QVQLVQSGAEVKKPGASVKVSCKASGYTFTSYYMHWVRQAPGQGLEWMGIILPTGHSTSYAQKFQGRVTMTRDTSTSTVYMELSSLRSEDTAVYYCAREEYAPFSAEYFQFWGQGTLVTVSS
VL: EIVLTQSPATLSLSPGERATLSCRASQNVDHYLAWYQQKPGQAPRLLIYDASNRATGIPARFSGSGSGTDFTLTISSLEPEDFAVYYCQQRSNWPPWTFGQGTKVEIKR
notes: Fab; also called H:APFF LTH & L:NDH
B7: Fab H:APFF VLTH & L6_IGKJ1*01 S28N/S30D/S31H S52L/A55G (NDH LG) (Fab, V domains shown)
VH: B6 VH with I51V
VL: B6 VL with S52L, A55G
notes: Fab; also called H:APFF VLTH & L:NDH LG
B8: Fab VH1-46_IGHD6-6*01_IGHJ1*01 S102A/S103P/S104F/H111F I51V/N52L/S54T/G56H (H:APFF VLTH) & L6_IGKJ1*01 S28N/S30D/S31H S52L/A55S (L:NDH LS) (Fab, V domains shown)
VH: B6 VH with I51V
VL: B6 VL with S52L, A55S
notes: Fab; also called H:APFF VLTH & L:NDH LS
B9: Fab H:APFF LTH & L6_IGKJ1*01 S28N/S30D/S31H S52L/A55S (NDH LS) (Fab, V domains shown)
VH: B6 VH
VL: B6 VL with S52L, A55S
notes: Fab; also called H:APFF LTH & L:NDH LS
B10: Fab H:APFF LTH & L6_IGKJ1*01 S28N/S30D/S31H S52L/A55G (NDH LG) (Fab, V domains shown)
VH: B6 VH
VL: B6 VL with S52L, A55G
notes: Fab; also called H:APFF LTH & L:NDH LG
B11: Fab H:APFF VLTH & L6_IGKJ1*01 S28N/S30D/S31H (NDH) (Fab, V domains shown)
VH: B6 VH with I51V
VL: B6 VL
notes: Fab; also called H:APFF VLTH & L:NDH
B12: Fab VH1-46_IGHD6-6*01_IGHJ1*01 S102A/S103P/S104F/H111F I51V/N52L/S54T/G56H & L6_IGKJ1*01 S28N/S30D/S31H S52L/A55S (Fab, V domains shown)
VH: B6 VH with I51V
VL: B6 VL with S52L, A55S
notes: Fab; Constant parts come from Plasmid A (CH1, His6, Flag) and Plasmid C (kappa CL); also called H:APFF VLTH & L:NDH LS
B13: Fab VH5-51_IGHD5-18*01>3_IGHJ4*01 G100K/G104T G24T/S28R/G35V & V3-4_IGLJ1*01 (Fab, V domains shown)
VH: EVQLVQSGAEVKKPGESLKISCKTSGYRFTSYWIVWVRQMPGKGLEWMGIIYPGDSDTRYSPSFQGQVTISADKSISTAYLQWSSLKASDTAMYYCARRKYSYTYDYFDYWGQGTLVTVSS
VL: QTVVTQEPSFSVSPGGTVTLTCGLSSGSVSTSYYPSWYQQTPGQAPRTLIYSTNTRSSGVPDRFSGSILGNKAALTITGAQADDESDYYCVLYMGSGISYVFGTGTKVTVL
notes: Fab; Constant parts come from Plasmid A (CH1, His6, Flag) and Plasmid E (lambda CL); also called H:KT TRV & L:wt; H:KT TRV & V3-4_IGLJ1*01
B14: Fab VH5-51_IGHD5-18*01>3_IGHJ4*01 G100K/G104T G24T/S28R/G35V & V3-4_IGLJ1*01 V91L/S96P S52G (Fab, V domains shown)
VH: B13 VH
VL: B13 VL with S52G, V91L, S96P
notes: Fab; Constant parts come from Plasmid A (CH1, His6, Flag) and Plasmid E (lambda CL); also called H:KT TRV & L:LP S52G
B15: Fab VH5-51_IGHD5-18*01>3_IGHJ4*01 G100K/G104T/G24T/S28R/G35V (KT TRV) & V3-4_IGLJ1*01 (Fab, V domains shown)
VH: B13 VH
VL: B13 VL
notes: Fab; also called H:KT TRV & L:wt; H:KT TRV & V3-4_IGLJ1*01
B16: Fab VH5-51_IGHD5-18*01>3_IGHJ4*01 G100K/G104T G24T/S28R/G35V (H:KT TRV) & V3-4_IGLJ1*01 V91L/S96P S52G (L:LP S52G) (Fab, V domains shown)
VH: B13 VH
VL: B13 VL with S52G, V91L, S96P
notes: Fab; also called H:KT TRV & L:LP S52G
B17: Fab VH5-51_IGHD5-18*01>3_IGHJ4*01 G100K/G104T G24T/S28R/G35V (H:KT TRV) & V3-4_IGLJ1*01 V91L/S96P (L:LP) (Fab, V domains shown)
VH: B13 VH
VL: B13 VL with V91L, S96P
notes: Fab; also called H:KT TRV & L:LP

Biological target: T2, rHuman EGF R/Fc Chimera, CF (R&D Systems Cat#344-ER) (human, UniProt P00533 25-645)
T2 construct: Bought recombinant protein; also called epidermal growth factor receptor; Fc part of the bought chimera not given
Assay: ECL multispot (MSD), 20 nM Fab;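 also: purified Fab binding to antigens on multispot plates, read by electrochemiluminescence with a TAG-labelled detection antibody, 1 h Fab incubation at 20 °C, signal expressed relative to each well's blank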

Row | Binder | ECL signal ratio (column head gives no unit)
1 | B1 | 1.4
2 | B2 | 1.4
3 | B3 | 1.7
4 | B4 | 1.4

Biological target: T3, rHuman Notch-1/Fc Chimera, CF (R&D Systems Cat#3647-TK) (human, UniProt P46531 19-526)
T3 construct: Bought recombinant protein; Fc part of the bought chimera not given
Assay: ECL multispot (MSD), 20 nM Fab;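 also: purified Fab binding to antigens on multispot plates, read by electrochemiluminescence with a TAG-labelled detection antibody, 1 h Fab incubation at 20 °C, signal expressed relative to each well's blank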

Row | Binder | ECL signal ratio (column head gives no unit)
5 | B1 | 1.3
6 | B5 | 1.9
7 | B2 | 1.7
8 | B3 | 1.3
9 | B4 | 1.2

Biological target: T4, rHuman CD44/Fc Chimera, CF (R&D Systems Cat#3660-CD) (human, UniProt P16070 21-220)
T4 construct: Bought recombinant protein; Fc part of the bought chimera not given
Assay: ECL multispot (MSD), 20 nM Fab;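 also: purified Fab binding to antigens on multispot plates, read by electrochemiluminescence with a TAG-labelled detection antibody, 1 h Fab incubation at 20 °C, signal expressed relative to each well's blank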

Row | Binder | ECL signal ratio (column head gives no unit)
10 | B1 | 1
11 | B5 | 1.6
12 | B2 | 1.1
13 | B3 | 1.3
14 | B4 | 1.1

Biological target: T5, rHuman P-Cadherin/Fc Chimera, CF (R&D Systems Cat#861-PC) (human, UniProt P22223 108-654)
T5 construct: Bought recombinant protein; Fc part of the bought chimera not given
Assay: ECL multispot (MSD), 20 nM Fab;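 also: purified Fab binding to antigens on multispot plates, read by electrochemiluminescence with a TAG-labelled detection antibody, 1 h Fab incubation at 20 °C, signal expressed relative to each well's blank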

Row | Binder | ECL signal ratio (column head gives no unit)
15 | B1 | 1.8
16 | B5 | 4
17 | B2 | 2.1
18 | B3 | 2.2
19 | B4 | 3.9

Biological target: T6, rHuman IGF-1 sR, (IGF-1 sR), CF (R&D Systems Cat#391-GR) (human, UniProt P08069 31-932)
T6 construct: Bought recombinant soluble receptor; also called insulin-like growth factor-1 soluble receptor
Assay: ECL multispot (MSD), 20 nM Fab

Row | Binder | ECL signal ratio (column head gives no unit)
20 | B1 | 1.4
21 | B5 | 1.7
22 | B2 | 1.3
23 | B3 | 1.1
24 | B4 | 1.2

Biological target: T7, Recombinant Human DLL4 (R&D Systems Cat#1506-D4/CF) (human, UniProt Q9NR61 27-524)
T7 construct: Bought recombinant protein; also called delta-like protein 4; rHuman DLL4
Assay: ECL multispot (MSD), 20 nM Fab

Row | Binder | ECL signal ratio (column head gives no unit)
25 | B1 | 1.4
26 | B5 | 2
27 | B2 | 1.5
28 | B3 | 1.2
29 | B4 | 1.4

Biological target: T8, rHuman ErbB2/Fc Chimera, CF (R&D Systems Cat#1129-ER) (human, UniProt P04626 23-652)
T8 construct: Bought recombinant protein; also called human epidermal growth factor 2 receptor; Fc part of the bought chimera not given
Assay: ECL multispot (MSD), 20 nM Fab

Row | Binder | ECL signal ratio (column head gives no unit)
30 | B1 | 1.3
31 | B2 | 1.7
32 | B3 | 1.3
33 | B4 | 1.7

Biological target: T1, rHuman Erythropoietin R/Fc Chimera, CF …
Assay: ECL multispot (MSD), 20 nM Fab

Row | Binder | ECL signal ratio (column head gives no unit)
34 | B1 | 2
35 | B5 | 22.1
36 | B2 | 6
37 | B3 | 3.1
38 | B4 | 18.3

Biological target: T9, Recombinant Human DLL4 (R&D Systems Cat#1506-D4/CF) (human, UniProt Q9NR61 27-524)
T9 construct: bought recombinant protein; also called rHuman DLL4; delta-like protein 4
Assay: ELISA titration, 3-fold dilutions from 20 nM Fab

Row | Binder | fold binding affinity against the antibody mutants with heavy chain H:APFF ALTH
39 | B6 | ~10 fold
40 | B7 | ~10 fold
41 | B8 | ~10 fold
42 | B9 | ~10 fold
43 | B10 | ~10 fold
44 | B11 | ~10 fold

Biological target: T10, full-length human DLL4 expressed on the surface of CHO cells (human, UniProt Q9NR61 26-685)
T10 construct: also called CHO-DLL4; DLL4-expressing CHO cells
Assay: competition, flow cytometry; 250 nM biotinylated Notch-Fc as competitor on CHO-DLL4 cells, streptavidin-PE

Row | Binder | signal of biotinylated Notch-Fc bound to CHO-DLL4 cells at 2 nM Fab (read-out not given) | signal of biotinylated Notch-Fc bound to CHO-DLL4 cells at 10 nM Fab (read-out not given)
45 | B12 | 117 | 30
46 | B13 | 448 | 244
47 | B14 | 250 | 190

Biological target: T9, Recombinant Human DLL4 (R&D Systems …)
Assay: SPR

Row | Binder | fold binding affinity against the parent Fab | fold binding affinity against the parental Fab
48 | B8 | 430 fold | –
49 | B15 | – | 130 fold
50 | B16 | – | 1000 fold
51 | B17 | – | 1000 fold

Reference: patent US20120316071A1 (published 2012)
